Laboratory results reported in the DeepSol protein solubility set.

Assay: soluble on expression in E. coli; label from the status in PepcDB or PDB records

Q: For “MSLAERLNNDFQFIEVGRKDPKKKLLRQRKKEFVEIYEPFKPQQSVEQAHRCLGCGNPYCEWKCPVHNFIPNWLKLVSEGNILAAAELSHQTNTLPEVCGRVCPQDRLCEGACTLNDGFGAVTIGSVEKYITDTAFAMGWRPDMSKVKPTGKRVAIIGAGPAGLGCADVLVRAGVTPVVFDKNPEIGGLLTFGIPEFKLEKTVLSNRREVFTGMGIEFRLNTEVGKDVTMEQLLAEYDAVFMGMGTYTYMKGGFPGEDLPGVHDALDFLIANVNRNLGFEKSPEDFVDMQGKKVVVLGGGDTAMDCNRTSIRQGAKAVTCAYRRDEANMPGSRKEVKNAKEEGVKFLYNRQPIAIVGEDKVEGVKVVETRLGEPDARGRRSPEPIPGSEEILPADAVVIAFGFRPSPAPWFEQHGIQLDSQGRVVAPEKGKFKHQTSNPKVFAGGDMVRGSDLVVTAIFEGRTAAEGILDYLEVEGHHHHHH”, which “soluble on expression in E. coli” value is on record?
A: Its value is “soluble”.

Q: For “MGSDKIHHHHHHMFEVFNYEDIICARGNREMPWKPSFQMNVYYYLIDGLLIDSGPYSLAKEAIEFFNAHIIEQVFLSHIHEDHAGMAYWLQEKMQIPIYLHEGSLEEARREPELAKYRLGIWGRRKAFNAEPINDTIKTGSYVFDVIDSPGHCPYHKVLHEKTKGWLFSGDLLNNLKPKSVMFDENTNDTILSIRKVLDLDFTTVFCAHTGIRKNAKNLFLKKLNYLLELQKDTQVLRNRGFSNTEIVEQLFPGPDPISSLSGGEFSSYYLVSTL”, which “soluble on expression in E. coli” value is on record?
A: Its value is “not soluble”.

Q: With “SPPIGNQLGALVHQRTVITEEFKVPDKMVGFIIGRGGEQISRIQAESGCKIQIASESSGIPERPCVLTGTPESIEQAKRLLGQIVDRCRNGPGFHNDIDSNSTIQEILIPASKVGLVIGRGGETIKQLQERTGVKMVMIQDGPLPTGADKPLRITGDAFKVQQAREMVLEIIREKDQADFRGVRGDFNSRMGGGSIEVSVPRFAVGIVIGRNGEMIKKIQNDAGVRIQFKPDDGISPEYYRQQVAFYGQTLGQAQAHSQEQ” as the sequence, how does the “soluble on expression in E. coli” value read?
A: Its value is “soluble”.

Q: For “MNRREANALDRYLTEPTEKPHKETYEDDPVDTTDYFGNEIADEDGVFEITFAMKCLYTGQPVLTCKKIATQDTIVDLIEELGEENVYLIEYVSSGKRYKEGLLND”, which “soluble on expression in E. coli” value is on record?
A: The value was “not soluble”.

Q: With “PESPGGRGIKPDTCPAPGPRSPLQLPLAPDAESGSSGRRPGEPRDPLKLQQLQNQIRLEQEAGARQPPPAPRSAPPSPPFPPPPAFPELAACTPPASPEPMSALASRSAPAMQSSGSFNYARPKQFIAAQNLGPASGHGTPASSPSSSSLPSPMSPTPRQFGRAPVPPFAQPFGAEPEAPWGSSSPSPPPPPPPVFSPTAAFPVPDVFPLPPPPPPLPSPGQASHCSSPATRFGHGQTPAAFLSALLPSQPPPAAVNALGLPKGVTPAGFPKKASRTARIASDEEIQGTKDAVIQDLERKLRFKEDLLNNGQPRLTYEERMARRLLGADSATVFNIQEPEEETANQEYKVSSCEQRLISEIEYRLERSPVDESGDEVQYGDVPVENGMAPFFEMKLKHYKIFEGMPVTFTCRVAGNPKPKIYWFKDGKQISPKSDHYTIQRDLDGTCSLHTTASTLDDDGNYTIMAANPQGRISCTGRLMVQAVNQRGRSPRSPSGHPHVRRPRSRSRDSGDENEPIQERFFRPHFLQAPGDLTVQEGKLCRMDCKVSGLPTPDLSWQLDGKPVRPDSAHKMLVRENGVHSLIIEPVTSRDAGIYTCIATNRAGQNSFSLELVVAAKEAHKPPVFIEKLQNTGVADGYPVRLECRVLGVPPPQIFWKKENESLTHSTDRVSMHQDNHGYICLLIQGATKEDAGWYTVSAKNEAGIVSCTARLDVYTQWHQQSQSTKPKKVRPSASRYAALSDQGLDIKAAFQPEANPSHLTLNTALVESEDL” as the sequence, how does the “soluble on expression in E. coli” value read?
A: The value was “soluble”.

Q: For “MVRRLTSPRLEFEAAAIYEYPEHLHSFLNDLPTRPGVYLFHGESDTMPLYIGKSVNIRSRVLSHLRTPDEAAMLRQSRRISWICTAGEIGALLLEARLIKEQQPLFNKRLRRNRQLCALQLNEKRVDVVYAKEVDFSRAPNLFGLFANRRAALQALQSIADEQKLCYGLLGLEPLSRGRACFRSALKRCAGACCGKESHEEHALRLRQSLERLRVVCWPWQGAVALKEQHPEMTQYHIIQNWLWLGAVNSLEEATTLIRTPAGFDHDGYKILCKPLLSGNYEITELDPANDQRAS”, which “soluble on expression in E. coli” value is on record?
A: The value was “not soluble”.

Q: With “GMTAVFRNTVLVRFKHCDAAGIVFYPRYFEMLNDFIEDWFAQALDWPFDAMHGAGQAGVPTADLHCRFVAPSRLGETLTRELRVVKLGQSSFTVQVRFMGPDSGLRLEVTQRLVCVDTDKIAPRPLPDPVRQAMATYVDETLAATGSPGL” as the sequence, how does the “soluble on expression in E. coli” value read?
A: Its value is “soluble”.

Q: Which “soluble on expression in E. coli” value does the source give for “MLQPPFNIKVTNITLTTAVVTWQPPILPIEGILVTFGRKNDPSDETTVDLTSSITSLTLTNLEPNTTYEIRIVARNGQQYSPPVSTTFTTGSLEHHHHHH” here?
A: Its value is “soluble”.

Q: Which “soluble on expression in E. coli” value does the source give for “SKERRAPQPVVARCKLVLVGDVQCGKTAMLQVLAKDCYPETYVPTVFENYTACLETEEQRVELSLWDTSGSPYYDNVRPLCYSDSDAVLLCFDISRPETVDSALKKWRTEILDYCPSTRVLLIGCKTDLRTDLSTLMELSHQKQAPISYEQGCAIAKQLGAEIYLEGSAFTSEKSIHSIFRTASMLCLNKPSPLPQKSPVRSLSKRLLHLPSRSELISSTFKKEKAKSCSIM” here?
A: Its value is “soluble”.

Q: With “MLPSHRSPDSATHDRIRKMTMNAMPQTAAQNETLHTCSIIVDDAQDFSPMLLDAGRDDTLISESMIPQIRTVAALIAAERHDFSRSSPAEFTDAADFFAARILVLGVRRFHLDVSLLQILKTANSRARRFAEKHRLFFTPAQAELSLNKHKNRRLLTVETEHEVENKGNPVANSLAFVRKLHTLPL” as the sequence, how does the “soluble on expression in E. coli” value read?
A: Its value is “not soluble”.

Q: Which “soluble on expression in E. coli” value does the source give for “MGILNKILTAFRGGATEVGQSIVDANSTRIFEQEIRDAEKHLTNAKRELTDVMAKEMQASREVDRLKRSIAEHEGYVTQALDKGNEALAIEVAEKIAQLEQELAEQQTANDSFSAHALRLKDLVKKTERQLSDYQRQLSMVKTTESVQKATATITDSFASSNSKLLNAKDSLERIKARQQQFDDRLKAAETLAEEGSDKSLQAKLAEAGIGEQKSNANAVLERIKARKSLEHHHHHH” here?
A: The value was “not soluble”.

Q: For “MNIEQLSQSLEHMANQAATLDRQRGEHHVPLFDERLFSCRSRLLTPCVKEAKSTLDAIIREQNENKLTALRAEYLTERLVAQIGAIQREISTTKIRKNEIKHSSHFRKPINVLYQELAQHQEWARRLREMVLEKERAVETAPSFMRAEAQKVLLATEQRLARCEAALLKLENQITHREKHQ”, which “soluble on expression in E. coli” value is on record?
A: Its value is “soluble”.

Q: With “GQEVTMWGDSHGVAPNQVRRTLVKVALSESLPPGAKQIRIGFSLPKETEEKVTALYLLVSDSLAVRDLPDYKGRVSYDSFPISKEDRTTALSADSVAGRRFFYLAADIGPVASFSRSDTLTARVEEVAVDGRPLPLKELSPASRRLYRGY” as the sequence, how does the “soluble on expression in E. coli” value read?
A: Its value is “not soluble”.

Q: Which “soluble on expression in E. coli” value does the source give for “MGSDKIHHHHHHMMVNESADQLYSFALLDEDAKREIRRSLLKAVALPGHLIPFASRDLPIARGWGTGGLQITLSIITPDDTLKVIDQGDDESVNAVNLRRLIHRTTGVATTTDTAAASLIQTRHRIPEEPLRADQILVLQVPMADPLRWVEPSLERAITMHGETDYGKMWVYLYESVVRAGDLRIASQYPVIVNHRYMMDTTPIPRWDVPKLHMAETLYLFGAGREKRIYAVPPHTPVEPLQFEDYPFRTEYRPGQRCARCGAENTFLTSHFVADANGGRWEMTCSDVAFCAKRQGEQRDR” here?
A: The value was “not soluble”.

Q: For “MSINTANTPDGLGVLLYNGETIVIFAQGVVMTLGTSENENLEGRRTGTIYLTSHRIIFMPDPGDWLKSFEIPFNSMQDVNLNQPIFGANYLCGIASAVQGGQMRGEVKWRMTFNRGGCIEFGQSLLQAVERAVRMRPENAPPAYSPPIGDFYSAPPAYYQPSPDQGPNGFNPTTDSFPDQPNPSRVFMSSAPPPYPGIGPERGPHPTEELHVAGQFEAPPAYGSGETADGLRRRN”, which “soluble on expression in E. coli” value is on record?
A: Its value is “not soluble”.

Q: For “MDLEYAMNPGGRRRFQNKDQATYGVFAPDSDDDDDEQGTSRGPYKKRSKISAPMSFVSGGIQQGNKIDKDDPASLNLNLGGEKKPKEDDEGSIQIDFDKRTKKAPKQNGAQVFAGMRSSANHGAADINQFGSWMRGDGNSNKIMKMMQAMGYKPGEGLGAQGQGIVEPVQAQLRKGRGAVGAYGKESTATGPKFGESAADAQKRMAQEGTSSRPTNDDQEKSGLKIKGSWKKSQTVKTKYRTIEDVMEEGMSASRPASHQQSQQYSNIKVIDMTGKQQKIYSGYDSFSMKTRSEYDTVDDEERTVFDVPELIHNLNLLVDLTEEGIRRSNQQLISLKDQTTALEYDLQQVQKSLGTEEQEAQHIKDVYELIDGFSSNRSPSMEECQELFRRLRSEFPHEYELYSLETVAIPTVLPLIQKYFVAWKPLEDKNYGCELISTWRDILDDSKNGRKMTFGHNKTKGDEIRAYDRIIWEGILPSIRRACLQWDPSTQMHEMIELVEQWIPLLSAWITENILEQLVVPKIAERVNQWDPMTDEIPIHEWLVPWLVLLGDRIQTVMPPIRQKLSKALKLWDPMDRSALETLRPWQNVWSAATFSAFIAQNIVPKLGVALDTMELNPTMNPEYPEWTACMEWLEFTHPDAIANIVTKYFFPRFYNCLCLWLDSPGVDYNEVKRWYGSWKARIPQVLVNYPTVNENLRRSMIAIGRSLQGEKVGGLQATPIAPMAPPPPMAPHFTQAAPVQKLSLKEIIEYTAGKNGFTYHPQKDRYKDGRQVFWFGALSIYLDSEMVYVMDPIEFVWRPSGLNELIQMAQGAQG”, which “soluble on expression in E. coli” value is on record?
A: Its value is “not soluble”.

Q: For “MSLLGTGYLPDGTHMPGANPNLNIAAFLKENHIDLHTTVYPGGGLDPYTSVEFLNIVSKHCKTVFSNANEVLNTIPNSIYVPGIINTEFYHYNQKVSTKPIQMIFAAHNAERKGFPLLAQAFNKLDDQFHLHIVGNWENSLHLLTNNNYTFWGMLDLEKLKQLYEQSHVFISCSTKDKFAIDGFPTTAAADAMATGCILVSTNHRNDNRILKPGEDYLKIEADSNSILSNLFWIKMNFEKALEIGKSGAIKMDKYFNYKTNVNFKLSHIF”, which “soluble on expression in E. coli” value is on record?
A: The value was “not soluble”.

Q: Which “soluble on expression in E. coli” value does the source give for “AHHHHHHGSRMRQEERKFVELVERIMERWGYDRTGGKIYGILLLSNKPLTISELSKITGLSRSSVSVALSKLTREYLVTYTKEKKTKYFYAVPAFLEKFLKQPKEILEREIKPLKEIVVKLAEKSNEEEKARFEAILSDLLTLECVLKKIIELEEKESECLKK” here?
A: Its value is “not soluble”.

Q: For “MSLNKQDGENTLQHEKSSSFGYWCSPSPEQLERLSLKQLAAVSNFVIGRRGYGCITFQHDVDLTAFTKSFREELFGKIVIFRSSKTVEVYPDEATKPMIGHGLNVPAIITLENVYPVDKKTKKPMKDTTKFAEFQVFDRKLRSMREMNYISYNPFGGTWTFKVNHFEGHHHHHH”, which “soluble on expression in E. coli” value is on record?
A: Its value is “soluble”.

Q: With “MGSDKIHHHHHHMDIYEKYGLKPVINADGKMTILGVSQVSDQVAAAQKQGAQNFFEMAELTVQTGRYLADLIGSEDALIVNSASAGIAQVLAGIIGRGNAYHVTHPYTTQITQREVIMPLGHDVDYGAPVDVMLAVAGAQPVLAGYANRCTAEQLAMQITPQTVAILYIKSHHTVQKSMLTIADALQVAHDHHLPLVLDAAAEGDLRRYLQLGVDVVIYSGAKAISGPASGLVLGRQTYVEWARQQNYGIGRAMKIGKENILGLVAAVEQYLTTGPESGASMKARLAPFIAELQTLPNVQVEMVQDGAGRDIFRASVRIAEAAKICQALRQGRPAIYPREYRVNEGLIEFDIRALTSAEMTQIVERLRTIIEEESTCN” as the sequence, how does the “soluble on expression in E. coli” value read?
A: Its value is “not soluble”.

Q: For “MEIRVANKYALGKKLGSGSFGDIYVAKDIVTMEEFAVKLESTRSKHPQLLYESKLYKILGGGIGVPKVYWYGIEGDFTIMVLDLLGPSLEDLFTLCNRKFSLKTVLMTADQMLNRIEYVHSKNFIHRDIKPDNFLIGRGKKVTLIHIIDFGLAKKYRDSRSHTHIPYKEGKNLTGTARYASINTHLGIEQSRRDDIEALGYVLMYFLRGSLPWQGLKAISKKDKYDKIMEKKISTSVEVLCRNASFEFVTYLNYCRSLRFEDRPDYTYLRRLLKDLFIREGFTYDFLFDWTCVYASEKDKKKMLENKNRFDQTADQEGRVKQN”, which “soluble on expression in E. coli” value is on record?
A: The value was “not soluble”.
